Results on eight molecules are retold here after patent US20160272691A1, “COMPOSITIONS AND METHODS FOR TREATING CONDITIONS ASSOCIATED WITH y-HERPESVIRUSES” (NDSU RESEARCH FOUNDATION, priority 2013, published 2016).

Experiment [1] concerns the target T1, γHV68 M11 residues 1-136 (murine γHV68), P89884.
T1 chain: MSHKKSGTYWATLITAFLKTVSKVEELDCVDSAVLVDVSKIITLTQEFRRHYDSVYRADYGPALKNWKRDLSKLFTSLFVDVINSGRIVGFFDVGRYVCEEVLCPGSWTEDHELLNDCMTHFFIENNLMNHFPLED
As to the kind of experiment: ITC (Table 4; quantity and unit in Table 1).

In experiment [2] the target is T1, γHV68 M11 residues 1-136 (murine …). Kind of experiment: ITC, 25 °C.
The target is the same in experiment [3]. Kind of experiment: ITC.
Experiment [4] deals with T2, His6-tagged Bcl-XL (residues 1-208, N52D, N66D) (human), Q07817.
T2 chain: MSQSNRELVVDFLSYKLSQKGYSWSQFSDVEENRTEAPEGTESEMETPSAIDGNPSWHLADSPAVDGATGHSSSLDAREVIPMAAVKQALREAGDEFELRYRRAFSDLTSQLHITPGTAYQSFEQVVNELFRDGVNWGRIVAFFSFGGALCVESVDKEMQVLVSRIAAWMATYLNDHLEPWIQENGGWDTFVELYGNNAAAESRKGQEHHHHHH
As to the kind of experiment: ITC (Table 4; quantity and unit in Table 1).

The target in experiment [5] is T2, His6-tagged Bcl-XL (residues 1-208, …). As to the kind of experiment: ITC, 25 °C.
The target of experiment [6] is Bcl-2, P10415. Kind of experiment: ITC (Table 4; quantity and unit in Table 1).
The target of experiment [7] is KSHV Bcl-2 (KSHV). Kind of experiment: not stated in the sentence (ITC implied).
The target in experiment [8] is Bcl-2, P10415. As to the kind of experiment: not stated in the sentence (ITC implied).
For experiment [9], the target named is T2, His6-tagged Bcl-XL (residues 1-208, …). As to the kind of experiment: ITC.

Chain of Bcl-2, P10415 (P10415 1-211 limits assumed): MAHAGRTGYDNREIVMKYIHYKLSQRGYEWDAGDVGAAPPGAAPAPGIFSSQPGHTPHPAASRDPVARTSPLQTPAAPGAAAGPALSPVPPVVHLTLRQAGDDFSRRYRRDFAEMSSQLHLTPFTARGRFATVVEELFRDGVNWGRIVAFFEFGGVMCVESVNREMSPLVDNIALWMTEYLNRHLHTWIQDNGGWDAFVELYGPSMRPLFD

B1: Beclin 1 BH3D-derived peptide L116A (peptide)
peptide: GSGTMENLSRRAKVTGDLFDIMSGQT
modifications: not checked
Take B1: the Kd in experiment [1] was found to be 178 µM. In addition, in [2], the dissociation constant (Kd) stood at 178 µM, the ΔG is -5.11 kcal/mol, the ΔH is -8.7 kcal/mol and the ΔS was -50.3 J/K · mol. In [3], this molecule registered a fold reduction of binding affinity versus WT BH3D greater than 70 fold.

B2: Beclin 1 BH3D-derived peptide L112A (peptide)
peptide: GSGTMENASRRLKVTGDLFDIMSGQT
modifications: not checked
Regarding B2, the Kd in [1] turned out to be 4.3 µM; in [4], 110 µM; in experiment [2], 4.33 µM; in [5], 110 µM. The ΔG is -7.32 kcal/mol in [2] and -5.4 kcal/mol in [5]. For the same molecule, the ΔH is -11.3 kcal/mol in experiment [2] and -10.1 kcal/mol in [5]. In addition, the ΔS was -56.1 J/K · mol in [2] and -66.3 J/K · mol in experiment [5]. Also, in [3], the fold reduction of binding versus WT BH3D was found to be 3 fold.

B3: Beclin 1 BH3D peptide, wild type (peptide)
peptide: GSGTMENLSRRLKVTGDLFDIMSGQT
modifications: not checked
For B3, the dissociation constant Kd in experiment [1] worked out at 1.4 µM; in experiment [4], 1.9 µM; in experiment [6] it was 10.4 µM; in experiment [7] it was 54 µM; in [8], 9 µM; in [2], 1.38 µM. This molecule also displayed a dissociation constant (Kd) in [5] of 1.95 µM. Besides, the ΔG in experiment [2] is -8.01 kcal/mol; in experiment [5], -7.79 kcal/mol. The ΔH in experiment [2] is -17 kcal/mol; in experiment [5], -10.4 kcal/mol. In addition, the figures for the ΔS in [2] and in experiment [5] were -126 J/K · mol and -36.9 J/K · mol, respectively. Moreover, in [3], the fold difference in TΔSapp versus binding to Bcl-XL was 4 fold. The molecule also yielded a fold difference in ΔHapp versus binding to Bcl-XL in experiment [3] of 2 fold.

B4: Beclin 1 BH3D-derived peptide D121A (peptide)
peptide: GSGTMENLSRRLKVTGALFDIMSGQT
modifications: not checked
Regarding B4, the Kd in [1] was 1.3 µM.

B5: Beclin 1 BH3D-derived peptide K117A (peptide)
peptide: GSGTMENLSRRLAVTGDLFDIMSGQT
modifications: not checked
Regarding B5, the Kd is 0.7 µM in [1]; 18.9 µM in [4]; 24.5 µM in experiment [6]; 0.66 µM in experiment [2]; 18.9 µM in experiment [5]. Also, the ΔG in experiment [2] was -8.44 kcal/mol; in experiment [5] it was -6.45 kcal/mol. Further, the ΔH is -16.5 kcal/mol in experiment [2] and -9 kcal/mol in experiment [5]. Besides, the ΔS in [2] was -113 J/K · mol; in experiment [5], -35.8 J/K · mol. The molecule also yielded a fold improvement of binding versus WT BH3D in experiment [3] of 2 fold. The fold weakening of binding versus WT BH3D in experiment [9] was determined as 10 fold.

B6: Beclin 1 BH3D-derived peptide F123A (peptide)
peptide: GSGTMENLSRRLKVTGDLADIMSGQT
modifications: not checked
As for B6, the Kd in experiment [1] is 5.2 µM; in experiment [4], 408 µM; in experiment [2], 5.2 µM; in [5], 408 µM. Moreover, the ΔG in experiment [2] was -7.22 kcal/mol; in experiment [5], -4.63 kcal/mol. Further, the ΔH in [2] is -14.2 kcal/mol; in [5], -7.34 kcal/mol. The ΔS in experiment [2] is -97.8 J/K · mol; in experiment [5] it was -38 J/K · mol. In addition, the fold weakening of binding versus WT BH3D in experiment [3] is 4 fold; in experiment [9], 10 fold.

B7: Beclin 1 BH3D-derived G120E+D121A double mutant peptide (peptide)
peptide: GSGTMENLSRRLKVTEALFDIMSGQT
modifications: not checked
As to B7, the dissociation constant (Kd) in experiment [1] came to 6.4 µM. Besides, in experiment [2], the Kd came out at 6.43 µM, the ΔG is -7.08 kcal/mol, the ΔH is -14.9 kcal/mol and the ΔS was -110 J/K · mol. In experiment [3], the fold better affinity versus the G120E peptide came to 5.7 fold and the fold weaker affinity versus WT BH3D was 4.7 fold.

B8: Beclin 1 BH3D-derived peptide G120E (peptide)
peptide: GSGTMENLSRRLKVTEDLFDIMSGQT
modifications: not checked
In experiment [1], B8 came in with an equilibrium dissociation constant (Kd) of 36.5 µM. In [2], this molecule showed a Kd of 36.5 µM, a ΔG of -6.06 kcal/mol, a ΔH of -12.5 kcal/mol and a ΔS of -90 J/K · mol. In addition, the fold reduction of binding affinity versus WT BH3D in experiment [3] came to 26 fold.
